Source: the supplement of paper PMC10567573

B1: HSP90AB1 (parent)
chain: YHTSQSGDEMTSLSEYVSRMKETQ
B2: PLD5 (parent)
chain: VTYMNMTAYNKGRLQSSFWIVDKQ

Variants of: B1
Test: protein stability index of a GFP-peptide fusion (GPS, HEK-293T) (PSI 1-6); higher = more stable
Details: c terminus: a fixed tail appended
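Note: lentivirally expressed fusions sorted by FACS into six bins by GFP to DsRed ratio, PSI derived from sequencing read proportions per bin multiplied by bin number.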

Protein stability index: each site, then its substitutions
K21: A 3.71, C 3.47, W 2.64, V 3.58, R 3.29, D 4.08, F 2.84, H 3.52, G 3.84, T 3.42, N 3.88, Y 2.61, M 3.13, P 3.63, S 3.35, L 3.52, Q 3.32, E 4.2
M20: C 3.81, G 4.37, T 4.27, N 4.1, K 4.11, I 3.29, S 3.73, E 3.73, Q 4.13, H 4.16, P 4.44, A 4.62, W 2.47, L 3.42, F 2.89, R 4.26, D 4.46, V 3.92, Y 3.55
Q24: Y 3.1, C 3.18, L 2.98, T 3.64, F 3.16, G 3.52, N 3.62, R 3.53, K 3.43, D 4.06, I 3.05, A 3.26, V 3.19, E 3.94, S 3.61, M 3.2, P 3.43
T23: M 3.29, P 3.33, L 3.57, H 3.59, I 3.63, S 3.5, N 3.88, G 4.12, R 3.76, K 3.78, Y 3.16, Q 3.9, E 2.89, D 4.52, V 4.14, A 3.81, W 2.79, C 3.23
E22: L 3.54, W 1.79, Y 3.44, K 3.63, N 3.84, G 3.33, I 3.89, T 3.67, V 4.22, A 3.07, M 3.31, F 3.71, D 3.83, S 3, C 4.17, Q 3.94, H 3.05, P 3.17
R19: L 3.22, Q 4.15, W 3.46, K 4.27, N 4.32, Y 3.7, V 3.67, M 3.89, P 3.47, S 3.8, T 4.18

Variants of: B2
Test: as above
Details: c terminus: a fixed tail appended

Protein stability index of substitutions, site by site:
T7: A 3.57, E 1.02, S 2.21, H 2.05, D 1.87, F 1.89, V 2.61, P 1.22, Q 2.36, N 2.46, L 2.3
Q15: A 3.27, D 1.63, H 2.42, M 2.46, P 2.48, L 2.49, E 1.94, N 3.18, F 1.61, G 2.44, K 1.03, T 4.18, I 2.03, R 3.58, V 4.47
M6: N 1.76, S 1.87, E 1.65, R 2.06, H 1.93, D 2.13, Y 2.08, P 1.6, C 2.61, F 2.16, K 1.58, A 1.18, I 2.91, T 1.58, L 3.25, G 2.46, V 2.89, Q 2.1
T2: I 1.76, P 1.68, A 2.55, G 2.08, W 1.4, E 1.87, H 2.6, D 1.67, M 2.88, S 1.87, Q 2.08, C 2.25, N 1.29, R 1.91, K 2.52
R13: A 3.25, I 2.15, W 4.66, T 1.48, L 1.51, M 2.14, K 1.27, D 3.06, S 1.59, E 1.73, H 3.22, N 1.52, G 1.6, Q 2.13, Y 2.93
N5: T 2.08, E 2.76, D 1.45, P 1.49, I 2.99, A 3.48, M 3.53, F 2.69, R 3.38, L 3, W 3.13
N10: Y 2.25, M 3.39, E 3.78, D 2.75, S 1.95, W 3.08, H 1.97, A 2.67, K 1.89, C 2.87, T 2.49, L 1.28, P 2, Q 2.97, R 2.25
M4: V 3.21, P 2.09, C 3.5, H 1.89, E 2.3, A 1.98, S 3.45, G 2.13, N 1.5, L 1.68, D 1.89, Y 2.31, Q 2.18, K 2.05, T 2.44, R 1.34, F 3.33
Y9: T 2.06, V 1.81, A 1.62, H 1.75, P 1.1, K 2.02, R 1.58, D 2.58, G 2.11, M 2.17, E 2.11, S 1.83, L 1.92, C 2.55, I 2.59, W 3.74, F 3.22, N 1.78, Q 1.33
K11: D 1.96, Q 1.84, I 3.18, S 2.96, E 3.5, G 1.65, Y 3.58, L 3.44, P 2.17, A 1.36, N 3.07, W 1.68, T 2.14, H 1.95, R 1.96
Y3: W 3.91, P 2.06, R 2.4, M 2.14, S 2.51, V 2.33, K 1.62, D 3.2, Q 1.76, A 1.99, F 2.88, G 1.59, N 3.08, H 1.67, C 1.55, T 1.66, E 3.13
A8: H 1.93, D 1.1, P 3.56, G 2.11, Y 2.39, Q 1.5, T 2.02, N 2.29, K 1.95, F 2.41, M 2.46, V 3.16, S 2.24, R 1.9, I 3.64, C 2.68, E 1.46, L 2.22
V1: K 2.73, D 1.78, A 1.44, G 2.21, N 2.88, L 1.97, E 2.35, H 1.61, Y 3.25, S 2.17, Q 1.9, T 1.54, M 2.45, C 1.49, P 2.11, R 1.77, W 2.46
G12: R 1.58, D 3.02, C 1.53, S 2.38, L 4.29, K 2.31, H 1.15, E 1.8, Q 1.37, F 3.77, Y 2.49, A 1.89, T 1.8, V 1.91, M 2.18
L14: A 2.63, Y 2.04, T 2.14, F 1.93, D 2.06, E 1.62, Q 1.25, W 2.63, S 2.72, V 1.84, P 2.86, R 2.06, M 2.88, N 1.29, K 2.29
